Laboratory results from US20250188151A1, “C-JUN ANTAGONIST PEPTIDES” (The University of Bath, priority 2022, published 2025).
“Also recorded” adds a separate entry of the source. Numbered stars: 1 amine (or outer) side, 2 acyl side, 3 side chain; on linkers, the order of the positions; unused ones are H or OH. Bridge positions count the residues as written; N and C are the ends. Ends that are not written are not given here. mXylylene = c1cc(C[*:1])cc(C[*:2])c1

Assays:
[1] = target: T1, cJun bZIP/TRE DNA interaction (transcriptional block of TRE-mDHFR) (Homo sapiens, UniProt P05412, S292Y); experiment: Transcription Block Survival (TBS) assay: colony counting and growth competition in E. coli; assay type: cell-based; conditions: vs transcriptionally blocked cells (TRE-mDHFR + cJun bZIP)
T1 construct: expressed in transfected cells; host or cells: E. coli BL21 Gold carrying pES300d-TRE-mDHFR and pES230d-cJun bZIP
From the text: Library Construction and TBS Assay: Library inserts were produced using PCR fill-in reactions from synthesised primers (Sigma) with degenerate codons at the desired positions to produce the correct residue options. The library was subcloned using SacI and AscI sites into the pET24a plasmid containing A-FosW. The primers used were cJun-Hinge-Lib-F: 5′-[…] TATGCC-3′ (SEQ ID NO: 49) and cJun-Hinge-Lib_R: 5′-[…] GTTC-3′ (SEQ ID NO: 50). The library DNA was transformed into NEB 10-beta electrocompetent E. coli cells. The following equation was utilised to determine library coverage by the number of single colonies: E=100×(1−1/n)^m where E is the percentage of the library missing, m is the number of colonies collected and n is the library size. […] Library DNA quality was assessed by sequencing both the DNA pool and a number of single colonies to show degenerate codons in the correct positions in the pool and to show a diversity of library members from single colonies. The pool of library DNA was transformed into BL21 Gold cells already containing pES300d-TRE-mDHFR and pES230d-cJun bZIP.
Selective pressure is applied by growing the bacteria in M9 minimal media with TMP (2-4 μM) alongside ampicillin, kanamycin and chloramphenicol to maintain the required plasmids, and IPTG (1 mM) to induce protein expression. The library transformants were first plated out onto selective agar plates (2 μM TMP) and grown at 37° C. for 72-96 h. Optimisation experiments (FIG. 5) indicate that 4 μM TMP is optimum for selection however a lower stringency is used initially before selection is increased in later steps. Colonies from this first round of selection were pooled and serially grown in liquid culture at starting OD600 of 0.05 and grown at 37° C. with shaking at 200 rpm until the OD600 reached 0.6. TMP concentration was 2 μM in the first liquid culture passage before it was increased to the optimum 4 μM in subsequent passages. […] At each passage step, a sample of the culture was plated on LB agar (supplemented with antibiotics to maintain plasmids) to select and sequence individual colonies, and a DNA pool was also sequenced. This allows the occurrence of library members to be monitored as winner sequences are selected for. Assay Validation experiments utilised a modified assay methodology whereby overnight cultures from glycerol stocks of the Control Strains (Table 2) were diluted to OD600=0.5 and 50 μL was plated on a selective M9 minimal medium agar plate.
Transcription block survival (TBS) is an intracellular assay that utilises cell survival as a readout. […] This enzyme is absolutely essential for survival since it is required for the production of purines needed for DNA and amino acid synthesis. […]. We produced a mDHFR gene (FIGS. 2 and 3) by rational design to introduce 15 TRE sites into the coding DNA sequence to allow a robust cJun transcriptional block whilst minimising alteration to the expressed protein (TRE-mDHFR). In particular, the resulting TRE-mDHFR construct was produced via two silent and thirteen conservative mutations. […] The accessible surface areas of all other amino acid residues were calculated using the ‘Accessible Surface Area and Accessibility Calculation for Protein’ tool (http://cib.cf.ocha.ac.jp/bitool/ASA/). […]

[2] = target: c-Jun bZIP (expressed in E. coli) (Homo sapiens) (UniProt P05412); experiment: cell_activity; conditions: TBS assay
cJun bZIP [3] = target: cJun bZIP (Homo sapiens, UniProt P05412, S292Y); experiment: CD spectra and thermal denaturation of peptide/cJun heterodimers; conditions: heterodimer with cJun bZIP, Example 1
Protocol: Circular Dichroism (CD): An Applied Photophysics Chirascan was used for CD measurements, with a 200 μL sample in a 1 mm path length CD cell. Protein/DNA samples were suspended in 150 mM potassium phosphate, 150 mM potassium fluoride and 5 mM TCEP at pH 7.4 and were equilibrated for 30 minutes before measurement. […] These scans were averaged and converted to molar residue ellipticities (MRE). Thermal denaturation experiments were performed by measuring the ellipticity at 222 nm over a 1 to 90° C. gradient at 1° C. increments. Post-melt scans at 20° C. confirmed the transitions were reversible as they overlaid within 10% of the pre-melt scan.
Circular Dichroism (CD): An Applied Photophysics Chirascan was used for CD measurements, with a 200 μL sample in a 1 mm path length CD cell. Protein/DNA samples were suspended in 150 mM potassium phosphate, 150 mM potassium fluoride and 5 mM TCEP at pH 7.4 and were equilibrated for 30minutes before measurement. […] Thermal denaturation experiments were performed by measuring the ellipticity at 222 nm over a 1 to 90° C. gradient at 1° C. increments. Post-melt scans at 20° C. confirmed the transitions were reversible as they overlaid within 10% of the pre-melt scan.
Peptide helicity was determined by quantifying the CD signal at 222 nm of peptide only samples. Thermal denaturation experiments were then used to determine the Tm of peptide-c-Jun heterodimers, which was used as an approximate measure of target engagement. […] The same 60 amino acid c-Jun bZIP construct was used for all experiments, regardless of antagonist peptide length.

cJun bZIP [4] = target: T2, cJun bZIP (human, UniProt P05412 252-308, limits assumed); experiment: cell-based or functional assay
T2 chain: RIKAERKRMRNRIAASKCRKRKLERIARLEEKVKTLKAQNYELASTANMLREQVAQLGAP

cJun bZIP [5] = target: T2, cJun bZIP; experiment: cell-based or functional assay
cJun bZIP [6] = target: T2, cJun bZIP; experiment: ITC (PEAQ-ITC), peptide injected into cJun, one site model
cJun bZIP [7] = target: T2, cJun bZIP; experiment: cell-based or functional assay
cJun bZIP [8] = target: T2, cJun bZIP; experiment: CD thermal denaturation
cJun bZIP [9] = target: T2, cJun bZIP; experiment: CD thermal denaturation, peptide 5 µM and c-Jun 5 µM
cJun bZIP [10] = target: T2, cJun bZIP

MASTDTLQAETDQLEDEKYALQTEIANLLKEKEKLGAPHHHHHH [cFos LZ, human cFos leucine zipper domain construct]
effect on TRE-mDHFR transcriptional block / colony numbers [1]: no significant increase in colony numbers; also recorded: unable to effectively dissociate the cJun bZIP from TRE DNA

TRE-mDHFR gene (15 TRE sites)
activity (fold reduction in colony count) ([2]; 4 uM TMP, 1 mM IPTG): 21

WT-mDHFR gene
activity (fold reduction in colony count) ([2]; presumed nonspecific plasmid binding): 1.3

MASLDELQAEIEQLEERNYALRKEIEDLQKQLEKLGAPHHHHHH [FosW]
effect on TRE-mDHFR transcriptional block / colony numbers [1]: no significant increase in colony numbers; also recorded: unable to effectively dissociate the cJun bZIP from TRE DNA
Tm (° C.) (CD) (cJun bZIP [3]): 54 °C

B1: HingeW variant meta DBMBW, cyclised (peptide)
peptide: EAEELVVEEDVLEEEIEQLEERNYALRAEICNLSCQ-NH2
modifications: linker 31-35 via mXylylene; not fully specified
IC50 (µM), CD (cJun bZIP [4]): 61.5 µM

B2: HingeW variant 0W, cyclised (peptide)
peptide: EAEELVVEEDVLEEEIEQLEERNYALRSEICSLQCQ-NH2
modifications: linker 31-35 via mXylylene; not fully specified
IC50 (µM), CD (cJun bZIP [4]): 77.6 µM

B3: cJun bZIP (protein)
chain: RIKAERKRMRNRIAASKCRKRKLERIARLEEKVKTLKAQNYELASTANMLREQVAQLGAP
Tm (° C.) (CD): 39.8 ° C.

B4: HingeW peptide variant 23 (peptide)
peptide: Ac-EAEELVVEEDVLEEEIEQLEERNYALRKEIKDLQDQ-NH2
modifications: lactam 31-35
SMILES: CC[C@H](C)[C@H](NC(=O)[C@H](CCC(=O)O)NC(=O)[C@H](CCCCN)NC(=O)[C@H](CCCNC(=N)N)NC(=O)[C@H](CC(C)C)NC(=O)[C@H](C)NC(=O)[C@H](Cc1ccc(O)cc1)NC(=O)[C@H](CC(N)=O)NC(=O)[C@H](CCCNC(=N)N)NC(=O)[C@H](CCC(=O)O)NC(=O)[C@H](CCC(=O)O)NC(=O)[C@H](CC(C)C)NC(=O)[C@H](CCC(N)=O)NC(=O)[C@H](CCC(=O)O)NC(=O)[C@@H](NC(=O)[C@H](CCC(=O)O)NC(=O)[C@H](CCC(=O)O)NC(=O)[C@H](CCC(=O)O)NC(=O)[C@H](CC(C)C)NC(=O)[C@@H](NC(=O)[C@H](CC(=O)O)NC(=O)[C@H](CCC(=O)O)NC(=O)[C@H](CCC(=O)O)NC(=O)[C@@H](NC(=O)[C@@H](NC(=O)[C@H](CC(C)C)NC(=O)[C@H](CCC(=O)O)NC(=O)[C@H](CCC(=O)O)NC(=O)[C@H](C)NC(=O)[C@H](CCC(=O)O)NC(C)=O)C(C)C)C(C)C)C(C)C)[C@@H](C)CC)C(=O)N[C@H]1CCCCNC(=O)C[C@@H](C(=O)N[C@@H](CCC(N)=O)C(N)=O)NC(=O)[C@H](CCC(N)=O)NC(=O)[C@H](CC(C)C)NC(=O)[C@H](CC(=O)O)NC1=O
notes: Synthetic, NΔ20 CΔ7; Best single lactamised peptide; also called cyclised form of 22/23
fold lower IC50 than 11 (cJun bZIP [5]): 1.6 fold
-TΔS (cJun bZIP [6]): 14 kcal/mol
Kd (cJun bZIP [6]): 0.0866 µM
Stoichiometry, n (cJun bZIP [6]): 0.97
ΔG (cJun bZIP [6]): -9.66 kcal/mol
ΔH (cJun bZIP [6]): -23.6 kcal/mol
IC50 CD (cJun bZIP [7]): 52.7 µM
heterodimer ΔTm against parent sequence 11 (cJun bZIP [8]): ~8 ° C.
heterodimer ΔTm from lactamisation (23 against linear 22) (cJun bZIP [8]): ~9 ° C.
Tm (° C.) of peptide-c-Jun heterodimer (cJun bZIP [9]): 65 ° C.

B5: HingeW variant peptide 17 (peptide)
peptide: Ac-EAEELVVEEKVLEDEIEQLEERNYALRKEIEDLQKQ-NH2
modifications: lactam 10-14
SMILES: CC[C@H](C)[C@H](NC(=O)[C@H](CCC(=O)O)NC(=O)[C@H](CCCCN)NC(=O)[C@H](CCCNC(=N)N)NC(=O)[C@H](CC(C)C)NC(=O)[C@H](C)NC(=O)[C@H](Cc1ccc(O)cc1)NC(=O)[C@H](CC(N)=O)NC(=O)[C@H](CCCNC(=N)N)NC(=O)[C@H](CCC(=O)O)NC(=O)[C@H](CCC(=O)O)NC(=O)[C@H](CC(C)C)NC(=O)[C@H](CCC(N)=O)NC(=O)[C@H](CCC(=O)O)NC(=O)[C@@H](NC(=O)[C@H](CCC(=O)O)NC(=O)[C@@H]1CC(=O)NCCCC[C@H](NC(=O)[C@H](CCC(=O)O)NC(=O)[C@H](CCC(=O)O)NC(=O)[C@@H](NC(=O)[C@@H](NC(=O)[C@H](CC(C)C)NC(=O)[C@H](CCC(=O)O)NC(=O)[C@H](CCC(=O)O)NC(=O)[C@H](C)NC(=O)[C@H](CCC(=O)O)NC(C)=O)C(C)C)C(C)C)C(=O)N[C@@H](C(C)C)C(=O)N[C@@H](CC(C)C)C(=O)N[C@@H](CCC(=O)O)C(=O)N1)[C@@H](C)CC)C(=O)N[C@@H](CCC(=O)O)C(=O)N[C@@H](CC(=O)O)C(=O)N[C@@H](CC(C)C)C(=O)N[C@@H](CCC(N)=O)C(=O)N[C@@H](CCCCN)C(=O)N[C@@H](CCC(N)=O)C(N)=O
notes: Synthetic, NΔ20 CΔ7; also called cyclised form of 16/17
-TΔS (cJun bZIP [6]): 4.34 kcal/mol
Kd (cJun bZIP [6]): 0.0696 µM
Stoichiometry, n (cJun bZIP [6]): 1.2
ΔG (cJun bZIP [6]): -9.77 kcal/mol
ΔH (cJun bZIP [6]): -14.1 kcal/mol
IC50 CD (cJun bZIP [7]): 74.9 µM
increase in cJun heterodimer Tm from its linear form 16 (cJun bZIP [8]): ~9 ° C.
Tm (° C.) of peptide-c-Jun heterodimer (cJun bZIP [9]): 64 ° C.

B6: FosW (peptide)
peptide: MASLDELQAEIEQLEERNYALRKEIEDLQKQLEKLGAPHHHHHH
modifications: not fully specified
notes: Recombinant, capped and C-terminally 6xHis-tagged; Lacks the acidic extension
IC50, CD antagonism of cJun/TRE DNA (peak at ~281 nM) (cJun bZIP [5]): 120 µM
heterodimer Tm (cJun bZIP [10]): 54 ° C.

B7: HingeW variant 0W, linear (peptide)
peptide: EAEELVVEEDVLEEEIEQLEERNYALRSEICSLQCQ-NH2
modifications: not fully specified; cysteine pairing not given here
IC50 (µM), CD (cJun bZIP [4]): 86.7 µM

B8: HingeW variant meta DBMBW, linear (peptide)
peptide: EAEELVVEEDVLEEEIEQLEERNYALRAEICNLSCQ-NH2
modifications: not fully specified; cysteine pairing not given here
IC50 (µM), CD (cJun bZIP [4]): 91.1 µM
